# Data reported in publication doi:10.1101/2020.06.12.149534 (bioRxiv, 2020).
# T1: P113 N-terminal fragment (P. falciparum 3D7), purified soluble analyte (Plasmodium falciparum 3D7, stabilised)
# T1 chain: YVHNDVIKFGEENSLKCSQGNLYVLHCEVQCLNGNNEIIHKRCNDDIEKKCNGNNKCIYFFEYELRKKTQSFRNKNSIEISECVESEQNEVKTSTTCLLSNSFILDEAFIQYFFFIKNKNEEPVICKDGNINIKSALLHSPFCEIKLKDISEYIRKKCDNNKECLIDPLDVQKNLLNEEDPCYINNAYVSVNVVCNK
# B1: anti-P113 monoclonal antibody P3.2 (antibody, V domains shown)
# VH: QVQLQQPGAELVKPGASVRLSCKASGYTFTSYFMYWVRQRPGQGLQSIGGINPNNGGSNFNERFKTKATLTVDKSSSIAYLQLNSLTSEDSAVYYCTRRGLGYDYGGFAYWGQGTLVTVSA
# VL: DIQMTQTTSSLSASLGDRVTISCRASQDISNYLNWYQQKPDGTVKLLIYYTSRLHSGVSSRFSGSGSGTDYSLTIKNLEQEDIATYFCQQVNALPPTFGGGTKLEIK
# How the values were obtained:
# [1] = target: P113 N-terminal fragment D106K E107K, biotinylated bait (Plasmodium falciparum (3D7 strain)) (UniProt Q8ILP3); assay: SPR
# [2] = target: T1, P113 N-terminal fragment (P. falciparum …); assay: SPR
Molecule,fold reduction in dissociation half-life against wild-type P113 [1] [fold],Kd [2] [nM]
purified monomeric RH5 protein (from UniProt Q8IFM5 25-526) (natural protein),2,
B1,,320
